Laboratory results as given in paper PMC7545097, “Mapping the native interaction surfaces of PREP1 with PBX1 by cross-linking mass-spectrometry and mutagenesis” (Scientific Reports, 2020).
Positions count from the first letter of the chain named. Values belong to the binder of their own block, whether it stands above or below them.

Legend:
Assay in all cases: time-resolved fluorescence immunoassay (TR-FIA); plate coated with monoclonal anti-PBX1; PBX1 pre-incubated with PREP1 or MEIS1 for 1 h on ice, 10 µg/mL in 1% BSA PBS, 1 h at room temperature on the plate; detected with anti-PREP1 or biotinylated anti-MEIS1/2 and Eu^3+ conjugates; normalised to the wild-type protein taken as 1
Details in all cases: both partners purified
PBX1Δ43-55 = target: T1, PBX1Δ43-55 (human, UniProt P40424 1-430, Δ43-55)
T1 construct: PBX1, residues 1-430, with an internal deletion; source: E. coli, purified
T1 sequence (looked up): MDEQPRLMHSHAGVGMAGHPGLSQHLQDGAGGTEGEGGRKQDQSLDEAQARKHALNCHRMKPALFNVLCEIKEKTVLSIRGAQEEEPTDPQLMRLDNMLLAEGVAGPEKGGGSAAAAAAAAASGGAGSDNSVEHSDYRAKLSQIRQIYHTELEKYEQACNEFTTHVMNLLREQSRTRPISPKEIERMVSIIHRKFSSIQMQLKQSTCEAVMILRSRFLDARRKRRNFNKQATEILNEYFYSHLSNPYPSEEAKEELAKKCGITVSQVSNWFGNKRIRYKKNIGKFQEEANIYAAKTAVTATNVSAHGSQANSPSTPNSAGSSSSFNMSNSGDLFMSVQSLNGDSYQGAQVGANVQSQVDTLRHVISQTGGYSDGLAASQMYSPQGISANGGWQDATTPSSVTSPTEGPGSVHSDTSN

PBX1 Δ105-113 = target: T2, PBX1 Δ105-113 (human, UniProt P40424 1-430, Δ105-113)
T2 construct: PBX1, residues 1-430, with an internal deletion; source: E. coli, purified
T2 sequence (looked up): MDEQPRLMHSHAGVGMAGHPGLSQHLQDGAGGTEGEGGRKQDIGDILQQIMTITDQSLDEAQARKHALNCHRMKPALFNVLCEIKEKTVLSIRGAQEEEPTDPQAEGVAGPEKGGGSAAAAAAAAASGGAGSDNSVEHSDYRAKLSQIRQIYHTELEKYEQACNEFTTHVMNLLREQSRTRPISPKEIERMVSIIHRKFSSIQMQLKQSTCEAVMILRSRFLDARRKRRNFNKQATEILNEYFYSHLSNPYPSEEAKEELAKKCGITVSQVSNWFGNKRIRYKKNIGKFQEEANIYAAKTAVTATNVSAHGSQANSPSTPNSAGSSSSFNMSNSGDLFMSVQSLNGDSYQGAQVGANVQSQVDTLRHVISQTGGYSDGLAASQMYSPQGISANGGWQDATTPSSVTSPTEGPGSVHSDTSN

[1] = target: T3, PBX1 with substitution of both 204 and 211 residues (I204A/I211A) (human, UniProt P40424 1-430, I204A | I211A)
T3 construct: PBX1, residues 1-430; source: E. coli, purified
T3 sequence (looked up): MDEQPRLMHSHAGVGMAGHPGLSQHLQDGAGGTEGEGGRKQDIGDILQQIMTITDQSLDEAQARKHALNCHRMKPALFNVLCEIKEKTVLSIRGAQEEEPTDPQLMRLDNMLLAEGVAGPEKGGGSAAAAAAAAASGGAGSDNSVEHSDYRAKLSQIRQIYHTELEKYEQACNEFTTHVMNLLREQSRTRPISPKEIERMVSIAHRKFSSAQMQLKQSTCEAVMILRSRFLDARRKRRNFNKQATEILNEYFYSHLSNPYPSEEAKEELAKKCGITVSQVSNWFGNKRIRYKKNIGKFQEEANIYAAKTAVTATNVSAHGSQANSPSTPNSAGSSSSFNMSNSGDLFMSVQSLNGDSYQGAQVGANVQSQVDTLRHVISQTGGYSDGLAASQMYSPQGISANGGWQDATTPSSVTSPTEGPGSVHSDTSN

PREP1 L70A = target: T4, PREP1 L70A (UniProt P55347 1-436, L70A)
T4 construct: PREP1 (PKNOX1), residues 1-436
T4 sequence (looked up): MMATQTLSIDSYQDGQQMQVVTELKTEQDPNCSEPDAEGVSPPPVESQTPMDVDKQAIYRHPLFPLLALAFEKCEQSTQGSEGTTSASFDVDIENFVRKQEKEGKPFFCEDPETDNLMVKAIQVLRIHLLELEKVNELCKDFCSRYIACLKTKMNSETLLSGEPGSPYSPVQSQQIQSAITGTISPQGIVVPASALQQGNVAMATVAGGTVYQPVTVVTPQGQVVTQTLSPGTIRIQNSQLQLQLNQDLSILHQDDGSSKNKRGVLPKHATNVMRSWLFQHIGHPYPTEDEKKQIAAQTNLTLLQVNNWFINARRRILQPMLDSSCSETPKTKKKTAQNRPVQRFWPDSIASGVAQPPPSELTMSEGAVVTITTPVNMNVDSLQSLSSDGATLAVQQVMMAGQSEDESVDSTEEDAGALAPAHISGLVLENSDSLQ

binding relative to wild type (PBX1Δ43-55): 80%
binding relative to wild type (PBX1 Δ105-113): 75%
binding relative to wild type [1]: ~50%
B1: PREP1_(1-436), wild-type recombinant (TR-FIA) (natural protein, UniProt P55347 1-436, looked up)
chain: T4 sequence (looked up) with A70L
notes: also called wild-type PREP1; PKNOX1; source: E. coli, purified

binding result (PREP1 L70A): binds
B2: PBX1_(1-430), wild-type recombinant (natural protein, human, UniProt P40424 1-430, looked up)
chain: T3 sequence (looked up) with A204I, A211I
notes: also called wild-type PBX1; purified recombinant human PBX1; source: E. coli, purified
